From the RNAGym collection of RNA variant scans (doi:10.7554/elife.80360)

B1: Twister Ribozyme (parent)
chain: AACACUGCCAAUGCCGGUCCCAAGCCCGGAUAAAAGUGGAGGGGGCGG

Variants of: B1
Assay: self-cleavage, relative activity (ratio to wild type); higher = more cleavage; co-transcriptional

Variant	self-cleavage
U18A G39U	0.144
U18G C19U	0.105
C19G C25G	0.124
C19G C25U	0.151
C19A U31G	0.334
C19A G41C	0.114
C19A G41U	0.109
C19G G24C	0.125
C19G G24A	0.0928
U18C C46U	0.599
U18C C46A	0.463
U18C C46G	0.477
U18A U37C	0.0568
C19A A32C	0.201
C19A A32U	0.189
G17U U18C	0.126
U18G A35C	0.0813
C19G G42A	0.0847
G17A G44U	0.704
C19A A35G	0.095
C19A G44A	0.685

Variant	self-cleavage
U18A A23G	0.0959
C19A A23C	0.126
U18A C26G	0.124
G17U G45C	0.183
G17U G45U	0.221
G17C G41C	0.104
G17C G41A	0.0738
G17C G41U	0.0841
G17U C19G	0.111
G17U C19U	0.143
U18A C25U	0.0861
U18A G48U	0.419
U18A G48C	0.395
G17C U31G	0.139
G17C U31C	0.115
C19G A30C	0.0929
G17C G48A	0.133
G17C G48U	0.163
U18A G43A	0.147
U18G C20G	0.069
U18G C20A	0.057

Variant	self-cleavage
G17A G47C	0.224
G17A G47U	0.489
G17A G47A	0.297
U18G G44C	0.0756
U18G G44U	0.0806
G17U G41A	0.103
G17U G41U	0.101
G17U G41C	0.0885
U18A C20A	0.0667
U18C G36C	0.1
U18G G29C	0.0613
G17C A32C	0.0792
G17C A32G	0.129
G17C U18A	0.0862
G17C U18G	0.0748
C19A U37G	0.0778
C19A U37C	0.0949
G17U C20U	0.167
G17U C20G	0.105
U18A G29C	0.0874
U18A G29U	0.389

Variant	self-cleavage
U18A A32C	0.53
U18A A32U	0.632
U18A A32G	0.407
C19A G28U	0.179
U18G G41A	0.0588
U18G G41U	0.0362
G17C C25G	0.0833
G17C C20U	0.0836
G17C C20A	0.0695
G17U G42A	0.104
G17U G42C	0.126
G17C U37A	0.0865
G17C U37G	0.0835
G17C U37C	0.0657
U18G G38C	0.102
U18G G38U	0.0721
U18G A40C	0.0607
G17U C27A	0.148
U18C C27G	0.0754
C19G G38A	0.132
G17U G24A	0.101
